The numbers were not newly measured in article PMC3670934, which cites them from elsewhere.

pKd: −log10 of the molar value.

Some targets named below: CCL26 (Homo sapiens) (UniProt Q9Y258); CCL24 (Homo sapiens) (UniProt O00175); CCL11 (Homo sapiens) (UniProt P51671).

Chain of CCR3 (P51677 whole entry): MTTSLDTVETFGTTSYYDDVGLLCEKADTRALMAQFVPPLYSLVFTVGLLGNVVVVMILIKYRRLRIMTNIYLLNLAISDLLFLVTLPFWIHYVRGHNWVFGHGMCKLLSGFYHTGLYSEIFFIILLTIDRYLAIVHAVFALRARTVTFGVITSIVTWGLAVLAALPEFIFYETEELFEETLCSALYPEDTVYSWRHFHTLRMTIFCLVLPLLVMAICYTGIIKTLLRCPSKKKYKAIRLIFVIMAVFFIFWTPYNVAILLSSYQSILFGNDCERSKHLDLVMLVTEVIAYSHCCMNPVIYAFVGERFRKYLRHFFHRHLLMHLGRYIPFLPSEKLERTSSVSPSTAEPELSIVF
Chain of CCL24 (Homo sapiens) (O00175 27-119): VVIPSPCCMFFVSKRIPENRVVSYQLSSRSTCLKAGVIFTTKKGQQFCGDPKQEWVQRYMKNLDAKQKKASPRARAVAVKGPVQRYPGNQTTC
Chain of CCL26 (Homo sapiens) (Q9Y258 24-94): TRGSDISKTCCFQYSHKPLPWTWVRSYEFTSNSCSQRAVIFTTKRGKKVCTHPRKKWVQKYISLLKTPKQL
Chain of CCL11 (Homo sapiens) (P51671 24-97): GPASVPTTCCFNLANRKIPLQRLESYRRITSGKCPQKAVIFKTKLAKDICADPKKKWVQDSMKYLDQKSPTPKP

As to CCR3 (from UniProt P51677), the pKd in the data set with CCL26 (Homo sapiens) was 9.05; with CCL24 (Homo sapiens), 9.22; with CCL11 (Homo sapiens), 9.28.

The term pKd denotes the negative decadic logarithm of the Kd, by convention in mol/L.
